Source: the supplement of paper PMC9170038

System: MS2 coat protein
Assay: apparent KD of MS2 coat protein; higher = weaker reporter binding
Conditions: Eterna round: R107
Summary of the method: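 The designed RNA switches were transcribed on-chip from Illumina sequencing clusters. In 100 mM Tris-HCl pH 7.5, 80 mM KCl and 4 mM MgCl2, without or with constant ligand, they were titrated with SNAP-549-labelled MS2 coat protein from 0.7 or 1.5 nM to 3 µM in twofold steps. Apparent KD is the per-design median of normalised cluster binding-curve fits.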

[1] = input ligand: theophylline 20 uM
[2] = input ligand: theophylline 2 mM
[3] = input ligand: tryptophan 2.4 mM

Sequence	apparent KD of MS2 coat protein (input ligand: arginine 13.2 mM) [nM]	apparent KD of MS2 coat protein [1] [nM]	apparent KD of MS2 coat protein [2] [nM]	apparent KD of MS2 coat protein (input ligand: none) [nM]	apparent KD of MS2 coat protein [3] [nM]
AGUUCCAGGUCGGCCGCCACUGGCGUGGCCGGUCCUCGGACUUACAUGAGGAUCACCCAUGUGAACAGGACCGGGACCGCAUGGG [Exclusion Tryptophan B GF 25]	30	46	48.4		
GGGUACAUCGCGGCCGCCACUUGUGUAAAUACAUGAGGAUCACCCAUGUCGAUGGAGACAUCGGAGAGGACCGGGUGAUGUACCG	70.7	122	96.5	80	40.8
AACGUAUACAGAAGGAGCGUGAUUUAUAUUACUCAUUCAUAUACAUGAGGAUCACCCAUGUCACAGGUAGGUCGCUGUAUUCGUA [JR_ExcArginiB_Sub021]	76	165	157	153	108
GGACUAACCAGAAGGAGCGACACAAGCAGAAACUGCAAUCCUCCGCACGAGGAUCACCCGUGUCAGGUAGGUCGCUGGUUAGUCG [ArgBX 28]	57.5	96.8	96.8	63.7	67.4
UUUAUAUAGACGGCCGCCACUGGAAUUAAUACAUGAGGAUCACCCAUGUAUAGAGAAUAAUAAUACAGGACCGGGUCUUCAUGAU [SS Tryp B Tesla 1.1]	28.3	34.2	33.7		
AAUAUAAUAGACUCGUUUUAGUAUUUGGAACGAGGACCGGUACGGCCGCCACUCGUGAUUUACAUGAGGAUCACCCAUGUUAGCA [JR_SSTryptoA_Sub003]	15.5	18.4	17.5		
UCCUCCUCCGCAAGGAGGAGGAGUUGCGAUACCAGCCCGGAAACGGGCCCUUGGCAGCGCACAUGAGGAUCACCCAUGUCAUGUU [#1 Exclusion - Theophylline A Attempt #8 (HarryS)]	14.6	19.8	30.6	18.1	18
UUGGGUUUGUGAAGGAGCGGGAAAGUUAUAUAGUUAAUCCUAACAUGAGGAUCACCCAUGUCCCAGGUAGGUCGCGCGGGUUUGG [12.P]	32.7	60.6	55	47.5	47.3
CAAUAUAUAUGAAGGAGCGACAUGAGGAUCACCCAUGUCUACCACGUCGAAAGACGCUCAUGUCAGGUAGGUCGCAUAUAUAUUG [Astros-Eli-mod4]	71.9	129	144	102	90.9
UAAUGCAGGUCGGCCGCCACUACACACAUGAGGAUCACCCAUGUAGUUACUGGGUGAAGUGGCAGUAGGACCGGGACCUGCAUAA [Brourd01]	185	467	873		
ACAUGAGGAUCACCCAUGUCUGCCACUGAUACCAGCGGAUGCCAACGCCCUUGGCAGCAGAACAUGAGGAUCACCCAUGUAGGCA [Same State Theophylline A GF25]	99.5	303			297
AAAUAAAUACAUGAGGAUCACCCAUGUGAAGGAGCGGCCGUUAGGCCAGGUAGGUCGCGCAUGAAUAACUCCGUGCAAAAGCACA [MAT - Exclusion Arginine A - Mod of Eli - D18]	9.62	16.9	13.3	11.2	12.7
AAAGCUACGUAAAAUAAAACUACAUGUGAAGGAGCGCGCGAAAGCGCAGGUAGGUCGCACAUGAGGAUCACCCAUGUCGUAGCAA [MAT - Exclusion Arginine A - Mod of Eli - D5]	43.9	101	78.2	63.4	52.2
GGGCGAGUGGAGCGGCGUGCUCCGCUCCGUCGAGGACCGGUACGGCCGCCACUCGACAUGAGGAUCACCCAUGUGCGAGCUCGCG [#1 Exclusion - Tryptophan A Attempt #13 (HarryS)]	7.39	27.1	58.6	17.6	180
CAUGACAUGAGGAUCACCCAUGUAUCCAGUCGAGGACCGGUACGGCCGCCACUCGGUGCCUUCAAAUUUACAGACAGGUGACAGG [theeternabot_sameState_MS2_Trp_A_30]	26.2	42.9	39.6		
GGGUACAUCGCGGCCGCCACUUGUGUAAAUACAUGAGGAUCACCCAUGUCGAUGGAGACAUCGGGAAGGACCGGGUGAUGUACCG	218	802	1200	342	650
